The target in assay [1] is human FcRn (FCGRT and beta-2 microglobulin) expressed on MDCK II cells (human) (UniProt P55899). The assay is described as follows: cell-based or functional assay.
Assay [2] concerns the target human FcRn complex (FCGRT and beta-2 microglobulin), recombinant, purified (human) (UniProt P55899). The assay is described as follows: SPR, protein L capture, pH 6, kinetic.
Assay [3] shares this target. Nature of the assay: SPR, protein L capture, pH 7.4, steady state.
For assay [4] the target is unchanged. The assay is described as follows: SPR, anti-human Fab capture, pH 6, steady state.
The target is the same in assay [5]. The assay is described as follows: SPR, anti-human Fab capture, pH 7.4, steady state.
In assay [6] the target is cyno FcRn (cynomolgus monkey) (UniProt Q8SPV9). The assay is described as follows: affinity for cyno FcRn at 25 C, pH 6.0.
Assay [7] shares this target. Nature of the assay: affinity for cyno FcRn at 25 C, pH 7.4.

Chain of human FcRn complex (FCGRT and beta-2 microglobulin), recombinant, purified (human) (P55899 24-297 limits assumed, chain 1 of 2): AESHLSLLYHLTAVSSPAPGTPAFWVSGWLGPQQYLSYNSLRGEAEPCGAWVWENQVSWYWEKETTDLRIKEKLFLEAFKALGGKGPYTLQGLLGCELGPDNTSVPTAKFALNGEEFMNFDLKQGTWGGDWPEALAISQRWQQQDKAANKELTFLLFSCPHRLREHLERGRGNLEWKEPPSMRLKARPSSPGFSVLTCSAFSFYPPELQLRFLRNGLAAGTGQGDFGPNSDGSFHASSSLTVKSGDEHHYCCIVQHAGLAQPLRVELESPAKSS
Chain of human FcRn complex (FCGRT and beta-2 microglobulin), recombinant, purified (human) (P61769 21-119 limits assumed, chain 2 of 2, further chain): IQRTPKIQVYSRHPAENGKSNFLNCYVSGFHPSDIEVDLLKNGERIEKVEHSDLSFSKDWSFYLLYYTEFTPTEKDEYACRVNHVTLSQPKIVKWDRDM
Chain of cyno FcRn (cynomolgus monkey) (Q8SPV9 24-297 limits assumed, chain 1 of 2): as the sequence (P55899 24-297 limits assumed, chain 1 of 2) above, with N39D, E44Q, G99S, S189G, S190N, L217M, S269T counted along it
Chain of cyno FcRn (cynomolgus monkey) (Q8SPW0 21-119 limits assumed, chain 2 of 2, further chain): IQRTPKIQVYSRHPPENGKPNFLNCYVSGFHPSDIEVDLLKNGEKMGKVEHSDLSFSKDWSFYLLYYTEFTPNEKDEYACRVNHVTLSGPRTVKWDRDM
Chain of human FcRn (FCGRT and beta-2 microglobulin) expressed on MDCK II cells (human) (P55899 24-365, chain 1 of 2): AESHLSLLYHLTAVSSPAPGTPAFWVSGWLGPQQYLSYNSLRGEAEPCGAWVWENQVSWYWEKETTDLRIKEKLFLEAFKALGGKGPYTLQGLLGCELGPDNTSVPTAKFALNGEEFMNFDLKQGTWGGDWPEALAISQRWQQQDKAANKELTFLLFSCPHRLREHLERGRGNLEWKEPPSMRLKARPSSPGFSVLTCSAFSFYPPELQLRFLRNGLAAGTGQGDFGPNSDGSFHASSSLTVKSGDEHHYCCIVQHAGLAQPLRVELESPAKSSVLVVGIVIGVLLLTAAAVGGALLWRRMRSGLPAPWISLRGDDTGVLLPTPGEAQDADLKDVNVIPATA
Chain of human FcRn (FCGRT and beta-2 microglobulin) expressed on MDCK II cells (human) (P61769 21-119, chain 2 of 2, further chain): as the sequence (P61769 21-119 limits assumed, chain 2 of 2, further chain) above

B1: anti-BACE1 hIgG4 antibody, Fc modification T1-IgG4 (M252Y/T307Q/N434Y) (antibody, part only; not given: anti-BACE1 variable domains, not shown: another chain or arm of the molecule)
Fc: PAPEFLGGPSVFLFPPKPKDTLYISRTPEVTCVVVDVSQEDPEVQFNWYVDGVEVHNAKTKPREEQFNSTYRVVSVLQVLHQDWLNGKEYKCKVSNKGLPSSIEKTISKAKGQPREPQVYTLPPSQEEMTKNQVSLTCLVKGFYPSDIAVEWESNGQPENNYKTTPPVLDSDGSFFLYSRLTVDKSRWQEGNVFSCSVMHEALHYHYTQKSLSLSLGK
B1 registered a Transcytosis Normalized to WT (normalized to WT) in assay [1] of 80. Further, in assay [2], the Kd was determined as 10.5 nM, the off-rate (koff) stood at 0.00897 s⁻¹ and the kon was found to be 856000 M⁻¹ s⁻¹. In addition, the Kd in assay [3] was determined as 328 nM.

B2: anti-BACE1 hIgG4 antibody, Fc modification T94 (M252Y/N286E/N434Y) (antibody, part only; not given: Anti-BACE1 variable domains, not shown: another chain or arm of the molecule)
Fc: PAPEFLGGPSVFLFPPKPKDTLYISRTPEVTCVVVDVSQEDPEVQFNWYVDGVEVHEAKTKPREEQFNSTYRVVSVLTVLHQDWLNGKEYKCKVSNKGLPSSIEKTISKAKGQPREPQVYTLPPSQEEMTKNQVSLTCLVKGFYPSDIAVEWESNGQPENNYKTTPPVLDSDGSFFLYSRLTVDKSRWQEGNVFSCSVMHEALHYHYTQKSLSLSLGK
On to B2, for which the figures for the Kd in assay [4] and in assay [5] were 7.04 nM and 305 nM, respectively.

B3: anti-BACE1 hIgG4 antibody, Fc modification Q95 (M252Y/T307Q/Q311A/N434Y) (antibody, part only; not given: Anti-BACE1 variable domains, not shown: another chain or arm of the molecule)
Fc: PAPEFLGGPSVFLFPPKPKDTLYISRTPEVTCVVVDVSQEDPEVQFNWYVDGVEVHNAKTKPREEQFNSTYRVVSVLQVLHADWLNGKEYKCKVSNKGLPSSIEKTISKAKGQPREPQVYTLPPSQEEMTKNQVSLTCLVKGFYPSDIAVEWESNGQPENNYKTTPPVLDSDGSFFLYSRLTVDKSRWQEGNVFSCSVMHEALHYHYTQKSLSLSLGK
As for B3, the Kd in assay [4] was found to be 5.9 nM; in assay [5], 202 nM.

B4: anti-BACE1 hIgG4 antibody, Fc modification T3 (M252Y/Q311I/N434Y) (antibody, part only; not given: Anti-BACE1 variable domains, not shown: another chain or arm of the molecule)
Fc: PAPEFLGGPSVFLFPPKPKDTLYISRTPEVTCVVVDVSQEDPEVQFNWYVDGVEVHNAKTKPREEQFNSTYRVVSVLTVLHIDWLNGKEYKCKVSNKGLPSSIEKTISKAKGQPREPQVYTLPPSQEEMTKNQVSLTCLVKGFYPSDIAVEWESNGQPENNYKTTPPVLDSDGSFFLYSRLTVDKSRWQEGNVFSCSVMHEALHYHYTQKSLSLSLGK
On to B4, for which the values for the equilibrium dissociation constant (Kd) in assay [4] and in assay [5] were 7.4 nM and 263 nM, respectively.

B5: anti-Abeta hIgG4 antibody, Fc modification T3 (M252Y/Q311I/N434Y) (antibody, part only; not given: anti-Abeta variable domains, not shown: another chain or arm of the molecule)
Fc: PAPEFLGGPSVFLFPPKPKDTLYISRTPEVTCVVVDVSQEDPEVQFNWYVDGVEVHNAKTKPREEQFNSTYRVVSVLTVLHIDWLNGKEYKCKVSNKGLPSSIEKTISKAKGQPREPQVYTLPPSQEEMTKNQVSLTCLVKGFYPSDIAVEWESNGQPENNYKTTPPVLDSDGSFFLYSRLTVDKSRWQEGNVFSCSVMHEALHYHYTQKSLSLSLGK
B5: the equilibrium dissociation constant (Kd) in assay [4] is 9.2 nM; in assay [5], 334 nM.

B6: anti-Abeta hIgG4 antibody, Fc modification Q95 (M252Y/T307Q/Q311A/N434Y) (antibody, part only; not given: anti-Abeta variable domains, not shown: another chain or arm of the molecule)
Fc: PAPEFLGGPSVFLFPPKPKDTLYISRTPEVTCVVVDVSQEDPEVQFNWYVDGVEVHNAKTKPREEQFNSTYRVVSVLQVLHADWLNGKEYKCKVSNKGLPSSIEKTISKAKGQPREPQVYTLPPSQEEMTKNQVSLTCLVKGFYPSDIAVEWESNGQPENNYKTTPPVLDSDGSFFLYSRLTVDKSRWQEGNVFSCSVMHEALHYHYTQKSLSLSLGK
B6: the dissociation constant Kd in assay [6] came out at 8.2 nM; in assay [7], 215 nM; in assay [4], 6.5 nM; in assay [5], 284 nM.

B7: anti-BACE1 hIgG4 antibody, Fc modification Q6 (M252Y/M428L/N434Y/Y436I) (antibody, part only; not given: anti-BACE1 variable domains, not shown: another chain or arm of the molecule)
Fc: PAPEFLGGPSVFLFPPKPKDTLYISRTPEVTCVVVDVSQEDPEVQFNWYVDGVEVHNAKTKPREEQFNSTYRVVSVLTVLHQDWLNGKEYKCKVSNKGLPSSIEKTISKAKGQPREPQVYTLPPSQEEMTKNQVSLTCLVKGFYPSDIAVEWESNGQPENNYKTTPPVLDSDGSFFLYSRLTVDKSRWQEGNVFSCSVLHEALHYHITQKSLSLSLGK
B7: the results for the Kd in assay [4] and in assay [5] were 6.3 nM and 215 nM, respectively.

B8: anti-Abeta hIgG4 antibody, Fc modification Q7 (M252Y/Q311A/N434Y/Y436I) (antibody, part only; not given: anti-Abeta variable domains, not shown: another chain or arm of the molecule)
Fc: PAPEFLGGPSVFLFPPKPKDTLYISRTPEVTCVVVDVSQEDPEVQFNWYVDGVEVHNAKTKPREEQFNSTYRVVSVLTVLHADWLNGKEYKCKVSNKGLPSSIEKTISKAKGQPREPQVYTLPPSQEEMTKNQVSLTCLVKGFYPSDIAVEWESNGQPENNYKTTPPVLDSDGSFFLYSRLTVDKSRWQEGNVFSCSVMHEALHYHITQKSLSLSLGK
As for B8, the figures for the dissociation constant Kd in assay [4] and in assay [5] were 7.4 nM and 273 nM, respectively.

B9: anti-Abeta hIgG4 antibody, Fc modification T94 (M252Y/N286E/N434Y) (antibody, part only; not given: anti-Abeta variable domains, not shown: another chain or arm of the molecule)
Fc: PAPEFLGGPSVFLFPPKPKDTLYISRTPEVTCVVVDVSQEDPEVQFNWYVDGVEVHEAKTKPREEQFNSTYRVVSVLTVLHQDWLNGKEYKCKVSNKGLPSSIEKTISKAKGQPREPQVYTLPPSQEEMTKNQVSLTCLVKGFYPSDIAVEWESNGQPENNYKTTPPVLDSDGSFFLYSRLTVDKSRWQEGNVFSCSVMHEALHYHYTQKSLSLSLGK
For B9, the dissociation constant (Kd) in assay [6] worked out at 10.1 nM; in assay [7], 369 nM; in assay [4], 8.8 nM; in assay [5], 406 nM.

B10: anti-Abeta hIgG4 antibody, Fc modification D1 (M252Y/N434Y) (antibody, part only; not given: Anti-Abeta variable domains, not shown: another chain or arm of the molecule)
Fc: PAPEFLGGPSVFLFPPKPKDTLYISRTPEVTCVVVDVSQEDPEVQFNWYVDGVEVHNAKTKPREEQFNSTYRVVSVLTVLHQDWLNGKEYKCKVSNKGLPSSIEKTISKAKGQPREPQVYTLPPSQEEMTKNQVSLTCLVKGFYPSDIAVEWESNGQPENNYKTTPPVLDSDGSFFLYSRLTVDKSRWQEGNVFSCSVMHEALHYHYTQKSLSLSLGK
As for B10, the Kd in assay [6] turned out to be 11.5 nM; in assay [7], 571 nM; in assay [4] it was 13.1 nM; in assay [5], 1020 nM.

B11: anti-Abeta hIgG4 antibody, Fc modification Q4 (M252Y/Q311I/M428L/N434Y) (antibody, part only; not given: Anti-Abeta variable domains, not shown: another chain or arm of the molecule)
Fc: PAPEFLGGPSVFLFPPKPKDTLYISRTPEVTCVVVDVSQEDPEVQFNWYVDGVEVHNAKTKPREEQFNSTYRVVSVLTVLHIDWLNGKEYKCKVSNKGLPSSIEKTISKAKGQPREPQVYTLPPSQEEMTKNQVSLTCLVKGFYPSDIAVEWESNGQPENNYKTTPPVLDSDGSFFLYSRLTVDKSRWQEGNVFSCSVLHEALHYHYTQKSLSLSLGK
With B11, the Kd in assay [4] worked out at 9.2 nM; in assay [5], 486 nM.

B12: anti-BACE1 hIgG4 antibody, Fc modification Q7 (M252Y/Q311A/N434Y/Y436I) (antibody, part only; not given: anti-BACE1 variable domains, not shown: another chain or arm of the molecule)
Fc: PAPEFLGGPSVFLFPPKPKDTLYISRTPEVTCVVVDVSQEDPEVQFNWYVDGVEVHNAKTKPREEQFNSTYRVVSVLTVLHADWLNGKEYKCKVSNKGLPSSIEKTISKAKGQPREPQVYTLPPSQEEMTKNQVSLTCLVKGFYPSDIAVEWESNGQPENNYKTTPPVLDSDGSFFLYSRLTVDKSRWQEGNVFSCSVMHEALHYHITQKSLSLSLGK
For B12, in assay [5], the equilibrium dissociation constant (Kd) was 230 nM.

B13: anti-Abeta hIgG4 antibody, Fc modification Q6 (M252Y/M428L/N434Y/Y436I) (antibody, part only; not given: anti-Abeta variable domains, not shown: another chain or arm of the molecule)
Fc: PAPEFLGGPSVFLFPPKPKDTLYISRTPEVTCVVVDVSQEDPEVQFNWYVDGVEVHNAKTKPREEQFNSTYRVVSVLTVLHQDWLNGKEYKCKVSNKGLPSSIEKTISKAKGQPREPQVYTLPPSQEEMTKNQVSLTCLVKGFYPSDIAVEWESNGQPENNYKTTPPVLDSDGSFFLYSRLTVDKSRWQEGNVFSCSVLHEALHYHITQKSLSLSLGK
On to B13, for which the dissociation constant (Kd) in assay [4] is 8 nM; in assay [5] it was 285 nM.

(Values after patent publication US20220033520A1.)
